Laboratory results: publication PMC12148588 (eBioMedicine, 2025)

Target: T1, SARS-CoV-2 RBD of the Wuhan strain (Acro Biosystems SPD-C82E9-25) (SARS-CoV-2, Wuhan strain, UniProt P0DTC2)
T1 construct: source: bought: Acro Biosystems
Assay: SPR; Biacore 8K+, […]; 10 mM HEPES pH 7.4, 150 mM NaCl, 3 mM EDTA, 0.05% Tween 20; […]
Settings: both partners purified

B1: MB043_CL39 (antibody, V domains shown)
VH: EVQLVETGGGLIHPGGSLRLSCAASEFIVSYNYMSWVRQAPGKGLEWVSVIYSGGSTFYADAVKGRFTISRDSSKNTLDLLMNSLRVEDTAVYYCARVLPSNTDYFDYWGQGILVTVSS
VL: QSVLTQPPSVSGATGQRVTISCTGSNSNIGAGSDVHWYQQLPGAAPKLLIYVNNNRPSGVPDRFSGSKSGTSASLAITGLQAEDEADYYCQSYDSSLSGYVFGTGTKVTVL
**Q.** B1 was tested. Which “fold higher affinity than MB027_D06L” value did it give?
**A.** > 200 fold
